In paper PMC4744555, “Pi Release Limits the Intrinsic and RNA-Stimulated ATPase Cycles of DEAD-Box Protein 5 (Dbp5)” (Journal of Molecular Biology, 2016):

Key:
[1] = target: T1, Dbp5 (Saccharomyces cerevisiae, UniProt P20449); assay: kinetic competition with mantADP, FRET stopped flow; type: binding; details: no RNA; 30 mM Hepes pH 7.5, 100 mM KCl, 2 mM MgCl2, 2 mM DTT, 25 °C
T1 construct: full-length, N-terminal 6xHis tag, expressed in E. coli
T1 sequence (P20449 1-482): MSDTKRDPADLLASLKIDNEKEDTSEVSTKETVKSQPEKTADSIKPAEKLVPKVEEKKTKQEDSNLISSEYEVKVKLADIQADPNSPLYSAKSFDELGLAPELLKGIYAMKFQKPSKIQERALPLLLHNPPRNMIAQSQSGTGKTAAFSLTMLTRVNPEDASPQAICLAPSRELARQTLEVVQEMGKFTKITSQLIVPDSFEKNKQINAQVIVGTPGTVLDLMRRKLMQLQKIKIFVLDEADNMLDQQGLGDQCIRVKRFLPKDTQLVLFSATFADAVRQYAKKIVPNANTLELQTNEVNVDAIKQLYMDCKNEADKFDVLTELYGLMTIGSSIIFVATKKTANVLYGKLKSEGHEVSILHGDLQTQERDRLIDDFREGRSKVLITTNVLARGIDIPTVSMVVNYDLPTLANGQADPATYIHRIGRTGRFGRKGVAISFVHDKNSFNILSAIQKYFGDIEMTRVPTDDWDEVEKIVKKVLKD
Excerpt: kinetic competition with mantADP, FRET stopped flow on Dbp5

[2] = target: T1, Dbp5; assay: transient Pi release lag phase, phosphate binding protein (PiBiP), stopped flow; type: biochemical; details: no RNA; 30 mM Hepes pH 7.5, 100 mM KCl, 2 mM MgCl2, 2 mM DTT, 25 °C; ATP dissociation constant from lag-phase dependence; also determined by mant-nucleotide competition
Excerpt: transient Pi release lag phase, phosphate binding protein (PiBiP), stopped flow on Dbp5

[3] = target: T1, Dbp5; assay: FRET stopped flow, total fluorescence amplitude; type: binding
Excerpt: FRET stopped flow, total fluorescence amplitude on Dbp5

[4] = substrate: Nc1ncnc2c1ncn2[C@@H]1O[C@H](COP(=O)(O)OP(=O)(O)OP(=O)(O)O)[C@@H](O)[C@H]1O; assay: NADH-coupled steady-state ATPase assay; type: biochemical, Saccharomyces cerevisiae; details: no RNA, 30 mM Hepes pH 7.5, 100 mM KCl, 2 mM MgCl2, 2 mM DTT, 25 °C
Excerpt: (§1) NADH-coupled steady-state ATPase assay on Dbp5

[5] = substrate: Nc1ncnc2c1ncn2[C@@H]1O[C@H](CO[P@](=O)(O)O[P@](=O)(O)O[P@@](=O)(O)S)[C@@H](O)[C@H]1O; assay: NADH-coupled steady-state ATPase assay; type: biochemical, Saccharomyces cerevisiae; details: no RNA, 30 mM Hepes pH 7.5, 100 mM KCl, 2 mM MgCl2, 2 mM DTT, 25 °C
Excerpt: as §1

Nc1ncnc2c1ncn2[C@@H]1O[C@H](COP(=O)(O)OP(=O)(O)O)[C@@H](O)[C@H]1O [ADP]
Kd [1]: 360 µM

Nc1ncnc2c1ncn2[C@@H]1O[C@H](COP(=O)(O)OP(=O)(O)OP(=O)(O)O)[C@@H](O)[C@H]1O [ATP]
Kd [2]: 4000 µM

CNc1ccccc1C(=O)O[C@H]1[C@@H](O)[C@H](n2cnc3c(N)ncnc32)O[C@@H]1CO[P@@](=O)(O)O[P@](=O)(O)OP(=O)(O)O [mantATP]
Kd [3]: 1 µM

B1: Dbp5 (Saccharomyces cerevisiae S288C) (protein)
chain: T1 sequence (P20449 1-482)
notes: full-length, N-terminal 6xHis tag, expressed in E. coli
Km [4]: 1.7 (± 0.2) mM | kcat [4]: 0.043 (± 0.001) s^− 1 | Km [5]: 0.98 (± 0.06) mM | kcat [5]: 0.036 (± 0.001) s^− 1
